Assays:
[1] = target: T1, full length TGF-beta 1 including the latency associated peptide (human, UniProt P01137 30-390); test: analytical gel filtration
T1 construct: also called latent TGF-beta 1; human Latency-associated Peptide and TGF-beta 1

mature human TGF-beta 1 [2] = target: T2, mature human TGF-beta 1 (human, UniProt P01137 279-390); test: cell-based or functional assay
mature human TGF-beta 2 [3] = target: T3, mature human TGF-beta 2 (human, UniProt P61812 303-414); test: cell-based or functional assay
T3 sequence: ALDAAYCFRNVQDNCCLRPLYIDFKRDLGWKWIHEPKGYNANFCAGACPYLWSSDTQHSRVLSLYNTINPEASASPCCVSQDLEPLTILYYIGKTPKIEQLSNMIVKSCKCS

mature human TGF-beta 3 [4] = target: T4, mature human TGF-beta 3 (human, UniProt P10600 301-412); test: cell-based or functional assay
T4 sequence: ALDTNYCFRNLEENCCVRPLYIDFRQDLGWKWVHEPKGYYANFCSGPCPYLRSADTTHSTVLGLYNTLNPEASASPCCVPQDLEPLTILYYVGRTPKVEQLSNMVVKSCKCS

[5] = target: TGF-beta produced and activated by BxPC3 cells; test: cell-based or functional assay
mature human TGF-beta 2 [6] = target: T3, mature human TGF-beta 2; test: SPR Biacore T200, human TGF-beta amine-coupled (~20 RU), E. coli derived Fab as analyte; heterogeneous fit, component 1 (KD1; believed occluded)
Experimental: (§1) Human TGF-β isoforms 1, 2, and 3 (Peprotech) were immobilised on CMS Series S chip via amine coupling chemistry on Flowcell 2, 3 and 4 (respectively) to a level of approximately 20 RU. HBS-EP buffer (10 mM HEPES pH 7.4, 0.15 M NaCl, 3 mM EDTA, 0.05% Surfactant P20, GE Healthcare) was used as the running buffer. […] The surface was regenerated by 2×10 μL injection of 10 mM HCl at a flowrate of 10 uL/min.
(§2) Background subtraction binding curves were analysed using the T200 evaluation software (version 1.0; GE Healthcare) following standard procedures. Kinetic parameters were determined using heterogeneous fitting algorithm with RI=0), as described in Example 3, and the values are provided in Table 4.

mature human TGF-beta 1 [7] = target: T2, mature human TGF-beta 1; test: SPR Biacore T200, human TGF-beta amine-coupled (~20 RU), E. coli derived Fab as analyte; heterogeneous fit, component 1 (ka1; believed occluded)
Experimental: as §1, §2

mature human TGF-beta 2 [8] = target: T3, mature human TGF-beta 2; test: as above
Experimental: as §1, §2

mature human TGF-beta 3 [9] = target: T4, mature human TGF-beta 3; test: as above
Experimental: as §1, §2

mature human TGF-beta 1 [10] = target: T2, mature human TGF-beta 1; test: SPR Biacore T200, human TGF-beta amine-coupled (~20 RU), E. coli derived Fab as analyte; heterogeneous fit, component 1 (kd1; believed occluded)
Experimental: as §1, §2

mature human TGF-beta 2 [11] = target: T3, mature human TGF-beta 2; test: as above
Experimental: as §1, §2

mature human TGF-beta 3 [12] = target: T4, mature human TGF-beta 3; test: as above
Experimental: as §1, §2

mature human TGF-beta 1 [13] = target: T2, mature human TGF-beta 1; test: SPR Biacore T200, human TGF-beta amine-coupled (~20 RU), E. coli derived Fab as analyte; heterogeneous fit, component 2 (KD2; believed unoccluded)
Experimental: as §1, §2

mature human TGF-beta 2 [14] = target: T3, mature human TGF-beta 2; test: as above
Experimental: as §1, §2

mature human TGF-beta 3 [15] = target: T4, mature human TGF-beta 3; test: as above
Experimental: as §1, §2

mature human TGF-beta 1 [16] = target: T2, mature human TGF-beta 1; test: SPR Biacore T200, human TGF-beta amine-coupled (~20 RU), E. coli derived Fab as analyte; heterogeneous fit, component 2 (ka2; believed unoccluded)
Experimental: as §1, §2

mature human TGF-beta 2 [17] = target: T3, mature human TGF-beta 2; test: as above
Experimental: as §1, §2

mature human TGF-beta 3 [18] = target: T4, mature human TGF-beta 3; test: as above
Experimental: as §1, §2

mature human TGF-beta 1 [19] = target: T2, mature human TGF-beta 1; test: SPR Biacore T200, human TGF-beta amine-coupled (~20 RU), E. coli derived Fab as analyte; heterogeneous fit, component 2 (kd2; believed unoccluded)
Experimental: as §1, §2

mature human TGF-beta 2 [20] = target: T3, mature human TGF-beta 2; test: as above
Experimental: as §1, §2

mature human TGF-beta 3 [21] = target: T4, mature human TGF-beta 3; test: as above
Experimental: as §1, §2

T2 sequence (P01137 279-390 limits assumed): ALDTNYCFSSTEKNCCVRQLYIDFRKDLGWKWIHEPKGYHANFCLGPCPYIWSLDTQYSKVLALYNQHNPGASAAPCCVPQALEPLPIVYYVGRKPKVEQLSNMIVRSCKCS
T1 sequence (P01137 30-390 limits assumed): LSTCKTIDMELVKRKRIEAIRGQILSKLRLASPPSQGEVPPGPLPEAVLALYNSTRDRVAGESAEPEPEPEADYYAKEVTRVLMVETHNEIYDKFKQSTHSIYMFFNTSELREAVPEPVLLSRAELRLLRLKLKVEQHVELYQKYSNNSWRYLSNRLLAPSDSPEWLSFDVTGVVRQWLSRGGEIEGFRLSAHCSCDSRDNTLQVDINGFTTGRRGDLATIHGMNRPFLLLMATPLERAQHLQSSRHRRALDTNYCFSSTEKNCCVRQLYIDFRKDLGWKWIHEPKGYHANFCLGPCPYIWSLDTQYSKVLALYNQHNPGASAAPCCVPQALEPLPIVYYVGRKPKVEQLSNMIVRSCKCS

binding result [1]: no binding | Geometric mean IC50, HEK-Blue TGF-beta reporter gene assay (mature human TGF-beta 1 [2]): 0.074 nM | Geometric mean IC50, HEK-Blue TGF-beta reporter gene assay (mature human TGF-beta 2 [3]): 0.01 nM | Geometric mean IC50, HEK-Blue TGF-beta reporter gene assay (mature human TGF-beta 3 [4]): 0.475 nM | Geometric mean IC50, BxPC3 and HEK-Blue TGF-beta reporter gene co-culture assay [5]: 3.95 nM | Kd (mature human TGF-beta 2 [6]): 3.67 nM | kon (mature human TGF-beta 1 [7]): 74900 M⁻¹ s⁻¹ | kon (mature human TGF-beta 2 [8]): 57700 M⁻¹ s⁻¹ | kon (mature human TGF-beta 3 [9]): 93200 M⁻¹ s⁻¹ | koff (mature human TGF-beta 1 [10]): 0.000709 s⁻¹ | koff (mature human TGF-beta 2 [11]): 0.000211 s⁻¹ | koff (mature human TGF-beta 3 [12]): 0.00146 s⁻¹ | Kd (mature human TGF-beta 1 [13]): 0.0808 nM | Kd (mature human TGF-beta 2 [14]): 0.196 nM | Kd (mature human TGF-beta 3 [15]): 1.72 nM | kon (mature human TGF-beta 1 [16]): 704000 M⁻¹ s⁻¹ | kon (mature human TGF-beta 2 [17]): 904000 M⁻¹ s⁻¹ | kon (mature human TGF-beta 3 [18]): 2e+06 M⁻¹ s⁻¹ | koff (mature human TGF-beta 1 [19]): 5.56e-05 s⁻¹ | koff (mature human TGF-beta 2 [20]): 0.00017 s⁻¹ | koff (mature human TGF-beta 3 [21]): 0.00339 s⁻¹
B1: humanised antibody 4856 Fab graft gL3gH13 (Fab, V domains shown)
VH: EVQLVESGGGLVKPGGSLRLSCAASGFSLSSYDMSWVRQAPGKGLEWIGIIYGGSGSTWYASWAKGRFTISRDSAKNSVYLQMNSLRAEDTAVYYCARGRDAGAGGSRNGYSLWGQGTLVTVSS
VL: AYDMTQSPSTLSASVGDRVTITCQASESIYSGLAWYQQKPGKAPKLLIYAASDLASGVPSRFSGSGSGTEYTLTISSLQPDDFATYYCQQTWTDGGIDNPFGGGTKVEIKR
notes: Human gamma-1 CH1 (G1m17) and human C-kappa (K1m3); also called 4856gL3gH13
